One series deals with His80 (UniProt position 80, NVSGAHLNPAF). The series is described as follows: kinetics (stopped-flow fluorescence transport assay in intact yeast cells). As to conditions: 23 °C; not stated (50 mM K-citrate buffer); 50 mM K-citrate with 1.4 M sorbitol; osmotic shock with 2.1 M glycerol in 50 mM K-citrate; Channel in the yeast plasma membrane, glycerol gradient applied; pH-gated closed (high pH) to open (low pH) transition.

Series [1] concerns the molecule itself. The series is described as follows: crystal structure; hanging-drop vapor diffusion at 18 °C, 100 mM MES-NaOH pH 6.0, 19 % PEG 2k MME, 5 % glycerol; entire tetramer in the asymmetric unit; 2.3 Å.

As usually defined, the pKa is the negative logarithm of the acid dissociation constant. Higher therefore signals a weaker acid or stronger base. The molecule “Aquaporin-10 (hAQP10), full length (Homo sapiens)” gave a pKa with His80 of 5.92 ± 0.20.
Still for that read-out and setting: the value for “Aquaporin-10 crystallisation construct (hAQP10cryst) (Homo sapiens; del1-10;del278-301)” was 6.00 ± 0.13.

B1: human aquaporin 10, crystallized variant hAQP10_(cryst) (domain or fragment, UniProt Q96PS8 11-277, looked up)
chain: MGHLRIRSLLARQCLAEFLGVFVLMLLTQGAVAQAVTSGETKGNFFTMFLAGSLAVTIAIYVGGNVSGAHLNPAFSLAMCIVGRLPWVKLPIYILVQLLSAFCASGATYVLYHDALQNYTGGNLTVTGPKETASIFATYPAPYLSLNNGFLDQVLGTGMLIVGLLAILDRRNKGVPAGLEPVVVGMLILALGLSMGANCGIPLNPARDLGPRLFTYVAGWGPEVFSAGNGWWWVPVVAPLVGATVGTATYQLLVALHHPEGPEPAQD
notes: human aquaglyceroporin AQP10, truncated in the termini (Δ1–10, Δ278–301): the first 10 and the last 24 amino acids removed; codon-optimized cDNA; His8 stretch fused directly to the C-terminus with no protease site; also called human AQP10; source: S. cerevisiae PAP1500, purified (IMAC, SEC); not shown: His8, C-terminal, kept
One may read the stoichiometry N as a count of units in the complex or per binding partner. Take B1: the “stoichiometry N” value in series [1] was determined as 4.

The record behind these values is publication PMC6232157, “Human adipose glycerol flux is regulated by a pH gate in AQP10” (Nature Communications, 2018).
